US20250197855A1 (ALNYLAM PHARMACEUTICALS, published 2025)

Tests used:
[1] = target: T1, C1q (mouse, in APPPS1-21 and WT mouse brain cortex sections) (mouse, UniProt P98086 23-245; P14106 26-253; Q02105 30-246); test: proximity ligation assay (Duolink PLA) on brain cortex sections of 16 weeks old APPPS1-21 mice
T1 construct: Endogenous tissue protein detected with mouse anti-C1q (HM1096BT, Hycult)
Method: Protein-protein binding ex vivo was performed by Duolink® PLA kit (DUO92101 SIGMA).
PLA signal was detected by Duolink® PLA kit according to manufacturer's protocol. Leica confocal microscope (SP8, Leica, Germany) equipped with a 100× oil objective (NA 1.4) were used for image. 6 fields per each sample were recorded, 3D reconstructions and the number of PLA signals per volume were performed using LAS-X software package (Leica, v1.2, Germany).
APPPS1-21 mice were treated with the liver-specific C5 siRNA AD-61679.

[2] = target: T2, Aβ in APPPS1-21 mouse brain (from the human APP transgene bearing the Swedish mutation) (human (transgene in mouse), UniProt P05067 672-713); test: proximity ligation assay (PLA) on APPPS1-21 mouse brain sections
T2 construct: also called methoxy-X04+ Aβ plaque
T2 sequence (P05067 672-713 limits assumed, change not shown): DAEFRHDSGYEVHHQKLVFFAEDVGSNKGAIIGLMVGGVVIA

T1 sequence (P98086 23-245 limits assumed, chain 1 of 3): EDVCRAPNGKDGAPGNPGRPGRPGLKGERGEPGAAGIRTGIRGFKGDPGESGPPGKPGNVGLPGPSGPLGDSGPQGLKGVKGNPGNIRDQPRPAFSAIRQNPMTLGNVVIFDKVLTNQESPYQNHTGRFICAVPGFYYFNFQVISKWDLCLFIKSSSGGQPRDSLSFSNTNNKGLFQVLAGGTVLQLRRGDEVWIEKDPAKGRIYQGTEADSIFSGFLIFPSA
T1 sequence (P14106 26-253 limits assumed, chain 2 of 3): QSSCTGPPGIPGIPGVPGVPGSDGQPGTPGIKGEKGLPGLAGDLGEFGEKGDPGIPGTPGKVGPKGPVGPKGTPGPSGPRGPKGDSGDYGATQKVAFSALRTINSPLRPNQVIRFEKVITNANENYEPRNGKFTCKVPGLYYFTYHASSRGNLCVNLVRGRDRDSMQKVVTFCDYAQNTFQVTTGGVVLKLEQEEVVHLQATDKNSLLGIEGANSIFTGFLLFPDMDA
T1 sequence (Q02105 30-246 limits assumed, chain 3 of 3): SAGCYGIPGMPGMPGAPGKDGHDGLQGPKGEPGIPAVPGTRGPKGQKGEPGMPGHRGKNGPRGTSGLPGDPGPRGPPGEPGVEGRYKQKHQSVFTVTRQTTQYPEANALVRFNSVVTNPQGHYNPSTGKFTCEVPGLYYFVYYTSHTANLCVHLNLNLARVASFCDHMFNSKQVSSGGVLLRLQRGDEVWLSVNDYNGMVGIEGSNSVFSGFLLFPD

binding result [1]: binds | binding result [2]: binds
B1: apolipoprotein E (mouse, in APPPS1-21 and WT mouse brain cortex sections) (other, UniProt P08226 19-311, looked up)
chain: EGEPEVTDQLEWQSNQPWEQALNRFWDYLRWVQTLSDQVQEELQSSQVTQELTALMEDTMTEVKAYKKELEEQLGPVAEETRARLGKEVQAAQARLGADMEDLRNRLGQYRNEVHTMLGQSTEEIRARLSTHLRKMRKRLMRDAEDLQKRLAVYKAGAREGAERGVSAIRERLGPLVEQGRQRTANLGAGAAQPLRDRAQAFGDRIRGRLEEVGNQARDRLEEVREHMEEVRSKMEEQTQQIRLQAEIFQARLKGWFEPIVEDMHRQWANLMEKIQASVATNPIITPVAQENQ
notes: Detected with rabbit anti-mouse ApoE (ab183597); also called ApoE
